Measured values: patent US20260234236A1 (INTERVET, published 2026)

Key:
[1] = target: T1, Recombinant canine IL-4 (R&D Systems, Catalog: 752-CL/CF) (canine, UniProt O77762 25-132); assay: cell-based or functional assay
T1 sequence (looked up): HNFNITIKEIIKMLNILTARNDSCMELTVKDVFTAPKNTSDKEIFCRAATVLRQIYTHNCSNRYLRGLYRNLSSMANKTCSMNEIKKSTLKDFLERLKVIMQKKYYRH

[2] = target: T2, Canine IL-4 with C-terminal Avi-HIS tag (canine, biotin label when loaded on SA biosensors (Example 4); site not stated); assay: DSS cross-linking and High-Mass MALDI MS
T2 construct: also called cIL-4; biotinylated avitag-cIL-4
T2 chain: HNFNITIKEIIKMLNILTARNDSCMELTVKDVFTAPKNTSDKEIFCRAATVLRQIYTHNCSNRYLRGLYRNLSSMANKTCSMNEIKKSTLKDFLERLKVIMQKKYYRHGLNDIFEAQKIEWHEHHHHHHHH
From the text: In order to identify potentially discontinuous epitopes recognized by the antibodies of the present invention to their respective antigens, e.g., canine IL-4 or canine IL-13, a method was employed that was based on chemical crosslinking using disuccinimidyl suberate (DSS) and mass spectrometry detection (XL-MS) at CovalX Inc. (CovalX® Instrument Incorporated; Covalx.com). With this method, the binding of a canine antibody to its corresponding canine antigen in the presence of a mass-labeled chemical crosslinker is performed. The cross-linking experiments allow the direct analysis of non-covalent interaction by High-Mass MALDI (matrix assisted laser desorption ionization) mass spectrometry. […] The covalent binding generated allows the interacting species to survive the sample preparation process and the MALDI ionization. A High-Mass detection system allows characterizing the interaction in the High-Mass range.
The presence of the antigen-antibody complex were confirmed using High Mass MALDI detection. […]

B1: IL4-P4A-2D11VH-cIgGB/IL4-P4A-2D11VL-cCL (antibody, V domains shown)
VH: EEQLVEFGGDLVKPGESLRLSCVASGFTFNKYDMSWVRQAPGKGLQWVATVADDESFAYYTDSVKGRFTISRDNAKNTLYLQMNSLRAEDTAMYYCVGKTGSYWDIDFDLWGPGTLVTISS
VL: QAVLTQPPSVSAALGQRVTISCSGSTDNVGTVGASWYQHLPGRAPKLLVYIVGDRPSGVPDRFSGSKSGTSATLTITGLQAEDEADYYCSSWDDSLRGIVFGGGTHLTVLG
notes: Full-length canine IgG-B; also called IL4-2D11
**Q.** How did the “IL-4 IC50 (nM); inhibition of canine IL-4 mediated STAT6 phosphorylation in DH82 cells” value [1] turn out when B1 was run?
**A.** The value was 0.91 nM.

**Q.** Does B1 bind [2]?
**A.** Result: binds
